Assay results reported in PMC5792912.

Legend:
Format in all cases: in vitro ADME
[1] = substrate: O=c1ccc2ccc(O)c(O)c2o1; experiment: Methylation kinetics in pooled human liver cytosol (HLC); conditions: other: HLC 0.5 mg/ml, substrate 0.1–40 µM, 5 min; best-fit value ± s.e.; pH 7.4
Description: (§1) Reaction mixtures were pre-incubated at 37°C for 5 min and initiated by the addition of SAM to a final concentration of 0.4 mM. The samples were incubated for a certain period of time and the reaction was terminated by the addition of 200 µl ice-cold acetonitrile and then centrifuged at 20 000g, 4°C, for 20 min. Control incubations were performed either without human liver cytosol, or without SAM or without substrate. The supernatants were subjected to ultra-fast liquid chromatography (UFLC) coupled with a diode array detector (DAD) and an electrospray ionization (ESI) mass spectrometer (MS) analyzer.
(§2) 7,8-DHCs and their methylated conjugates were analysed by a UFLC spectrometry system (Shimadzu, Kyoto, Japan), equipped with two LC-20AD pumps, a DGU-20A3 vacuum degasser, a SIL-20ACHT auto-sampler, a CTO-20AC column oven, an SPD-M 20A DAD, a CBM-20A communications bus module, a mass detector (2010EV) with an ESI interface and a computer equipped with UFLC-MS SOLUTION v. 3.41 software. A Shimadzu ODS (75.0 × 2.0 mm, 3 µm) analytical column was used to separate 7,8-DHCs and their methylated conjugates. Column temperature was kept at 40°C. […] The methylation samples were stable over 72 h at 4°C. 7,8-DHC methylation was quantified by the standard curves of the methylated conjugates at the detector wavelength of 325 nm, which were linear from 0.01 to 10 µM (the correlation coefficient was 0.999).
(§3) For estimating kinetic parameters, 7,8-DHCs (0.1–40 µM) were incubated with pooled HLC and S-COMT. 7,8-DHCs (0.1–40 µM) were incubated with HLC or S-COMT for 5 min, using a microsomal protein concentration of 0.5 mg ml^−1 or 0.002 mg ml^−1 for HLC and S-COMT, respectively. Kinetic constants for 7,8-DHCs methylation by HLC and S-COMT were obtained by fitting the Michaelis–Menten kinetics equation (3.1) to experimental data.
(§4) For the Michaelis–Menten kinetic model, 3.1 v=Vmax×[S]/Km+[S], where v is the rate of reaction, [S] is the substrate concentration, Vmax is the maximum velocity estimate and Km is the apparent affinity constant.
(§5) All incubations were performed in duplicate. Kinetic constants were obtained using GraphPad PRISM 6 (GraphPad Software, Inc. La Jolla, CA) software.

[2] = substrate: O=C(O)Cc1cc(=O)oc2c(O)c(O)ccc12; experiment: as above; conditions: other: HLC 0.5 mg/ml, substrate 0.1–40 µM, 5 min; best-fit value ± s.e.; pH 7.4
Description: as §1, §2, §3, §4, §5

[3] = substrate: O=c1cc(-c2ccccc2)c2ccc(O)c(O)c2o1; experiment: as above; conditions: other: HLC 0.5 mg/ml, substrate 0.1–40 µM, 5 min; best-fit value ± s.e.; pH 7.4
Description: as §1, §2, §3, §4, §5

[4] = substrate: Cc1cc(=O)oc2c(O)c(O)ccc12; experiment: as above; conditions: other: HLC 0.5 mg/ml, substrate 0.1–40 µM, 5 min; best-fit value ± s.e.; pH 7.4
Description: as §1, §2, §3, §4, §5

[5] = substrate: O=c1ccc2ccc(O)c(O)c2o1; experiment: Methylation kinetics with recombinant human soluble COMT; conditions: other: S-COMT 0.002 mg/ml, substrate 0.1–40 µM, 5 min; best-fit value ± s.e.; pH 7.4
Description: as §1, §2, §3, §4, §5

[6] = substrate: O=C(O)Cc1cc(=O)oc2c(O)c(O)ccc12; experiment: as above; conditions: other: S-COMT 0.002 mg/ml, substrate 0.1–40 µM, 5 min; best-fit value ± s.e.; pH 7.4
Description: as §1, §2, §3, §4, §5

[7] = substrate: O=c1cc(-c2ccccc2)c2ccc(O)c(O)c2o1; experiment: as above; conditions: other: S-COMT 0.002 mg/ml, substrate 0.1–40 µM, 5 min; best-fit value ± s.e.; pH 7.4
Description: as §1, §2, §3, §4, §5

[8] = substrate: Cc1cc(=O)oc2c(O)c(O)ccc12; experiment: as above; conditions: other: S-COMT 0.002 mg/ml, substrate 0.1–40 µM, 5 min; best-fit value ± s.e.; pH 7.4
Description: as §1, §2, §3, §4, §5

B1: COMT in HLC (Homo sapiens) (protein)
chain: MGDTKEQRILNHVLQHAEPGNAQSVLEAIDTYCEQKEWAMNVGDKKGKIVDAVIQEHQPSVLLELGAYCGYSAVRMARLLSPGARLITIEINPDCAAITQRMVDFAGVKDKVTLVVGASQDIIPQLKKKYDVDTLDMVFLDHWKDRYLPDTLLLEECGLLRKGTVLLADNVICPGAPDFLAHVRGSSCFECTHYQSFLEYREVVDGLEKAIYKGPGSEAGP
notes: Pooled human liver cytosol (HLC) from seven male donors; tissue Research Institute for Liver Diseases (Shanghai, China) Lot; QROX; host or cells: pooled human liver cytosol, seven male donors
Question: How did the Km [1] turn out when B1 was run?
Answer: 0.21 ± 0.036 µM

Question: And the Km [2]?
Answer: 7.52 ± 0.64 µM

Question: What about the Km [3] of the same protein?
Answer: 0.089 ± 0.015 µM

Question: And the Km [4]?
Answer: 0.20 ± 0.029 µM

B2: recombinant human soluble COMT (S-COMT) (Homo sapiens) (protein)
chain: B1 chain
notes: made in house
Question: Which results are given for B2?
Answer: Km [5]: 0.48 ± 0.071 µM; Km [6]: 7.93 ± 1.31 µM; Km [7]: 0.22 ± 0.034 µM; Km [8]: 1.07 ± 0.10 µM
